*1 amine or outer side, *2 acyl side, *3 side chain or, on linkers, in order; H or OH if unused. Bridges are numbered along the chain shown (N, C = ends). Primed or numbered codes have the meaning given here. Side-chain parts run from the residue outwards. [ ]: non-standard residue; d: D form. K(d) = (2R)-2-(4-((5-amino-5-carboxypentyl)amino)-4-oxobutanamido)-3-carboxy-N,N,N-trimethylpropan-1-aminium, C[N+](C)(C)C[C@@H](CC(=O)[*:3])NC(=O)CCC(=O)NCCCC[C@H](N[*:1])C(=O)[*:2]; TMAPF = 5-(4-(2-amino-2-carboxyethyl)phenoxy)-N,N,N-trimethylpentan-1-aminium, C[N+](C)(C)CCCCCOc1ccc(C[C@H](N[*:1])C(=O)[*:2])cc1; PEG2′ = PEG2 spacer unit (not further defined); Trp(7-Me) = Cc1cccc2c(C[C@H](N)C(=O)O)c[nH]c12; γGlu = O=C(O)[C@H](CCC(=O)[*:2])N[*:1]; 2Nal = N[C@@H](Cc1ccc2ccccc2c1)C(=O)O; AEF = NCCOc1ccc(C[C@H](N)C(=O)O)cc1; 3Pal = N[C@@H](Cc1cccnc1)C(=O)O; NMecPEG3a = not defined here; Pen = CC(C)(S)[C@H](N)C(=O)O; PEG12′ = not defined here; PEG2″ = PEG2 spacer unit; PEG4′ = not defined here; Thp = NC1(C(=O)O)CCOCC1; Sar = CNCC(=O)O
T1: interleukin-23 receptor (IL-23R) (UniProt Q5VWK5 24-629, limits assumed)
T1 sequence (looked up): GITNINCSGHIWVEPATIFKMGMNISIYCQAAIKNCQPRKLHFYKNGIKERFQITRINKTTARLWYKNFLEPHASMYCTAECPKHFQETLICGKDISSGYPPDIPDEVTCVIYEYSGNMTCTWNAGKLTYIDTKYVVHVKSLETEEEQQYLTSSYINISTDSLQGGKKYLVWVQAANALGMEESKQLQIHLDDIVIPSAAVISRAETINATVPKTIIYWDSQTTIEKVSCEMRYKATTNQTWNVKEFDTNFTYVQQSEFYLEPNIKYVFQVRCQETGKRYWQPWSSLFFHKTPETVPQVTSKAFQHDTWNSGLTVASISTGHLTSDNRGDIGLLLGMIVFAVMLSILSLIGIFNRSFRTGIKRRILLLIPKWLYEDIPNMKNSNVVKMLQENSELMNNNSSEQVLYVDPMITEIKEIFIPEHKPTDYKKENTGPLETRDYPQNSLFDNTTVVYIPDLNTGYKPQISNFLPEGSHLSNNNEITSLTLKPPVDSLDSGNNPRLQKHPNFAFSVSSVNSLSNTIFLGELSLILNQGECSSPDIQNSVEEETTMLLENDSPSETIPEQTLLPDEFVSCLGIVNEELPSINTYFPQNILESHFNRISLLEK

B1: SEQ ID NO: 84 (peptide)
peptide: {HOC18-γGlu-PEG2′-PEG2′}-[dR][Pen]NT[Trp(7-Me)]K(NMecPEG3a)[Pen][AEF][2Nal][Thp]EN[3Pal][Sar]-NH2
modifications: disulfide 2-7 (inferred); not fully specified; printed as HOC18gEPEG2PEG2CO-r-Pen(3)-N-T-7MeW-K(NMecPEG3a)-Pen(3)-AEF-2Nal-THP-E-N-3Pya-Sar-CONH2; reading uncertain
B2: SEQ ID NO: 161 (peptide)
peptide: XNTXXXXXXENXXK
modifications: MeCO-Pen(3)-N-T-7MeW-K(Ac)-Pen(3)-AEF-2Nal-THP-E-N-3Pya-Sar-K(PEG12gEC18OH)-CONH2
B3: SEQ ID NO: 116 (peptide)
peptide: {HOC18-γGlu-PEG12′}-[Pen]NTK(Ac)[Pen][AEF][2Nal][Thp]EN[3Pal][Sar]-NH2
modifications: disulfide 1-5 (inferred); not fully specified; printed as HOC18gEPEG12CO-Pen(3)-N-T-K(Ac)-Pen(3)-AEF-2Nal-THP-E-N-3Pya-Sar-CONH2
B4: SEQ ID NO: 3 (peptide)
peptide: XNTXXXXXXENXXK
modifications: MeCO-Pen(3)-N-T-7MeW-K(Ac)-Pen(3)-AEF-2Nal-THP-E-N-3Pya-Sar-K(PEG2NMePEG2NMegENMeC18Tetrazole)-CONH2
B5: SEQ ID NO: 102 (peptide)
peptide: XNTXXXXXXXNXXK
modifications: MeCO-Pen(3)-N-T-7MeW-K(Ac)-Pen(3)-AEF-2Nal-THP-K(Ac)-N-3Pya-Sar-K(PEG12gEC18OH)-CONH2
B6: SEQ ID NO: 150 (peptide)
peptide: XNTXXXXXXENXXK
modifications: not fully specified; MeCO-Pen(3)-N-T-7MeW-K(Ac)-Pen(3)-AEF-2Nal-THP-E-N-3Pya-Sar-K(PEG2PEG2gEC18OH)-CONH(PEG3a)
B7: SEQ ID NO: 21 (peptide)
peptide: Ac-[dR][Pen]NT[Trp(7-Me)]K(Ac)[Pen][AEF][2Nal][Thp]K([PEG2′-PEG2′-γGlu-C18OH])N[3Pal]X-NH2
modifications: disulfide 2-7 (inferred); not fully specified (residue 14); printed as MeCO-r-Pen(3)-N-T-7MeW-K(Ac)-Pen(3)-AEF-2Nal-THP-K(PEG2PEG2gEC18OH)-N-3Pya-NMeK(d)-CONH2
B8: SEQ ID NO: 101 (peptide)
peptide: XNTXXXXXXXNXXK
modifications: MeCO-Pen(3)-N-T-7MeW-K(Ac)-Pen(3)-AEF-2Nal-THP-K(Ac)-N-3Pya-Sar-K(PEG12gEC20OH)-CONH2
B9: SEQ ID NO: 149 (peptide)
peptide: XNTXXXXXXENXXK
modifications: MeCO-Pen(3)-N-T-7MeW-K(Ac)-Pen(3)-AEF-2Nal-THP-E-N-3Pya-Sar-K(PEG2PEG2gEC18OH)-CON(Me)2
B10: SEQ ID NO: 103 (peptide)
peptide: XNTXXXXXXENXXK
modifications: MeCO-Pen(3)-N-T-7MeW-K(Ac)-Pen(3)-AEF-2Nal-THP-E-N-3Pya-Sar-K(PEG12gEC20OH)-CONH2
B11: SEQ ID NO: 82 (peptide)
peptide: {HOC18-γGlu-PEG2″-PEG2″}-[dR][Pen]NT[Trp(7-Me)]K(Ac)[Pen][AEF][2Nal][Thp]K(NMecPEG3a)N[3Pal][Sar]-NH2
modifications: disulfide 2-7 (inferred); not fully specified; printed as HOC18gEPEG2PEG2CO-r-Pen(3)-N-T-7MeW-K(Ac)-Pen(3)-AEF-2Nal-THP-K(NMecPEG3a)-N-3Pya-Sar-CONH2; reading uncertain
B12: SEQ ID NO: 76 (peptide)
peptide: Ac-[dR][Pen]K([PEG2″-PEG2″-γGlu-C18OH])T[Trp(7-Me)]K(NMecPEG3a)[Pen][AEF][2Nal][Thp]EN[3Pal][Sar]-NH2
modifications: disulfide 2-7 (inferred); reading uncertain; also: printed as MeCO-r-Pen(3)-K(PEG2PEG2gEC18OH)-T-7MeW-K(NMecPEG3a)-Pen(3)-AEF-2Nal-THP-E-N-3Pya-Sar-CONH2
B13: SEQ ID NO: 104 (peptide)
peptide: Ac-[dK]([PEG12′-γGlu-C20OH])[Pen]NT[Trp(7-Me)]K(Ac)[Pen][AEF][2Nal][Thp]K(Ac)N[3Pal]X-NH2
modifications: disulfide 2-7 (inferred); not fully specified (residue 14); printed as MeCO-k(PEG12gEC20OH)-Pen(3)-N-T-7MeW-K(Ac)-Pen(3)-AEF-2Nal-THP-K(Ac)-N-3Pya-Ser-CONH2

Tests used:
[1] = target: T1, interleukin-23 receptor (IL-23R); assay: cell-based or functional assay
[2] = target: T1, interleukin-23 receptor (IL-23R); assay: cell-based or functional assay; remark: listed apart in the source

Binder | PBMC pSTAT3 IC50 [1] [nM] | IC50, IL23R reporter assay [2] [nM]
Ac-[dR][Pen]NT[Trp(7-Me)]K(Ac)[Pen][AEF][2Nal][Thp]EN[3Pal][Sar]K([PEG12′-γGlu-C20OH])-NH2 (disulfide 2-7 (inferred)) [SEQ ID NO: 134] | < 0.5 | < 50
{HOC18-γGlu-PEG2″-PEG2″}-[dR][Pen]NT[Trp(7-Me)]K(Ac)[Pen][TMAPF][2Nal][Thp]EN[3Pal][Sar]-NH2 (disulfide 2-7 (inferred); not fully specified) [SEQ ID NO: 83] | < 0.5 | < 50
Ac-[dK]([PEG12′-γGlu-C18OH])[Pen]NT[Trp(7-Me)]K(Ac)[Pen][AEF][2Nal][Thp]EN[3Pal][Sar]-NH2 (disulfide 2-7 (inferred)) [SEQ ID NO: 117] | < 0.5 | < 50
Ac-[Pen]K([PEG12′-γGlu-C18OH])T[Trp(7-Me)]K(Ac)[Pen][AEF][2Nal][Thp]EN[3Pal][Sar]-NH2 (disulfide 1-6 (inferred)) [SEQ ID NO: 97] | < 0.5 | < 50
B1 | < 0.5 | < 50
Ac-[dR][Pen]K([PEG12′-γGlu-C20OH])T[Trp(7-Me)]K(Ac)[Pen][AEF][2Nal][Thp]EN[3Pal][Sar]-NH2 (disulfide 2-7 (inferred)) [SEQ ID NO: 99] | < 0.5 | < 50
B2 | < 0.5 | < 50
B3 | < 0.5 | < 50
XNTXKXXXXENXX (MeCO-Pen(3)-N-T-7MeW-K(PEG12gEC18OH)-Pen(3)-AEF-2Nal-THP-E-N-3Pya-Sar-CONH2) [SEQ ID NO: 96] | < 0.5 | < 50
Ac-[dK]([PEG12′-γGlu-C18OH])[Pen]NT[Trp(7-Me)]K(Ac)[Pen][AEF][2Nal][Thp]K(Ac)N[3Pal][Sar]-NH2 (disulfide 2-7 (inferred)) [SEQ ID NO: 98] | < 0.5 | < 50
Ac-[dR][Pen]K([PEG12′-γGlu-C18OH])T[Trp(7-Me)]K(Ac)[Pen][AEF][2Nal][Thp]EN[3Pal][Sar]-NH2 (disulfide 2-7 (inferred)) [SEQ ID NO: 105] | < 0.5 | < 50
B4 | < 0.5 | < 50
B5 | < 0.5 | < 50
Ac-[dR][Pen]K([PEG2″-PEG2″-γGlu-C18OH])T[Trp(7-Me)]K(Ac)[Pen][TMAPF][2Nal][Thp]EN[3Pal][Sar]-NH2 (disulfide 2-7 (inferred)) [SEQ ID NO: 75] | < 0.5 | < 50
B6 | ≥ 5 | ≥ 500
XNTXXXXXXKNXX (MeCO-Pen(3)-N-T-7MeW-K(Ac)-Pen(3)-AEF-2Nal-THP-K(PEG12gEC18OH)-N-3Pya-Sar-CONH2) [SEQ ID NO: 100] | < 0.5 | < 50
Ac-[dR][Pen]NT[Trp(7-Me)]K(Ac)[Pen][AEF][2Nal][Thp]K([PEG4′-AcCl])N[3Pal][Sar]K([PEG2′-PEG2′-γGlu-C18OH])-NH2 (disulfide 2-7 (inferred)) [SEQ ID NO: 4] | < 0.5 | < 50
B7 | < 0.5 | < 50
B8 | < 0.5 | < 50
B9 | ≥ 5 | ≥ 500
B10 | < 0.5 | < 50
Ac-[dR][Pen]NT[Trp(7-Me)]K(Ac)[Pen][AEF][2Nal][Thp]EN[3Pal][Sar]K([PEG12′-γGlu-C18OH])-NH2 (disulfide 2-7 (inferred)) [SEQ ID NO: 133] | < 0.5 | < 50
B11 | < 0.5 | < 50
B12 | < 0.5 | < 50
B13 | < 0.5 | < 50
Ac-[dR][Pen]NT[Trp(7-Me)]K(Ac)[Pen][AEF]([PEG2′-PEG2′-γGlu-C18OH])[2Nal][Thp][K(d)]N[3Pal][Sar]-NH2 (disulfide 2-7 (inferred)) [SEQ ID NO: 9] | < 0.5 | < 50

Reference: patent US20260250320A1, “LIPIDATED PEPTIDE INHIBITORS OF INTERLEUKIN-23 RECEPTOR” (Janssen Pharmaceutica NV, priority 2023, published 2026)
